Source: the supplement of paper PMC12042874
± gives the uncertainty stated by the source.

assay: amyloid nucleation score (Sup35N fusion, yeast selection) (log enrichment); library NNK2; higher = more nucleation; inactive = no reads after selection
How it was run: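 The nucleation score equals the log enrichment of output over input reads from DiMSum, centred on the mode score of non-aggregating sequences. It was computed only for sequences with 100 or more input reads. The reads came from Illumina sequencing of plasmid inserts from psi-negative yeast expressing Sup35N fused to peptides of 20 random codons, induced with 100 μM copper sulfate for 24 hours and grown 7 days at 30°C without adenine and uracil.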

Compared with HPMQLLTSAQIKG, WLLGMYVIRGRQSYNSKDVR is higher in amyloid nucleation score: 0.863 ± 0.41 for the first, 3.38 ± 0.054 for the second.

Compared with ITSHVDAAVEFPNVSFSHGV, GSPLLVNDQSDGMYTSEISF is lower in amyloid nucleation score: 1.37 ± 0.47 for the first, -1.32 ± 1.1 for the second.

Compared with FLYLNAKSVRASIVWYEVKL, GGTVNYFNTLQRSMGNVESV is lower in amyloid nucleation score: 8.232 ± 0.048 for the first, 3.66 ± 0.046 for the second.

LVITTMDDLKCDRAVVGPMW and YAIICKPLDDPLRKGTRWRR are within error of each other in amyloid nucleation score: -0.174 ± 0.76 for the first, 0.477 ± 0.4 for the second.

SQKNCCKVEGRLMASRVKPR and IIGAWKM are within error of each other in amyloid nucleation score: 0.155 ± 1.1 for the first, 0.992 ± 0.33 for the second.

KEHGMESRPSWLTFSIYLVG and KLVTYVPSNKTNCHDDDGTY are within error of each other in amyloid nucleation score: 0.428 ± 0.56 for the first, -0.678 ± 0.56 for the second.

LCILVFRGASRSLFSGGVFT and PDDCGWVLMFENQFAAAGTP are within error of each other in amyloid nucleation score: -0.199 ± 0.76 for the first, 0.122 ± 0.28 for the second.

Compared with CNKTLLFIFPVLGQQDGDFG, CNVWDVSGDTFVTYGKDDRG is lower in amyloid nucleation score: 4.417 ± 0.044 for the first, 0.275 ± 0.25 for the second.

First: QVGFPWFGRQVKDYLLLYKP
Second: MNHISLFFRSEVQVCGVFC
The amyloid nucleation score of the first is lower: 0.22 ± 0.4 for the first, 8.609 ± 0.052 for the second.

NYGVFTSIHVCYDVINVVRV and SYYEFVVNLGKPAISVDSIT are within error of each other in amyloid nucleation score: -0.661 ± 1.1 for the first, 0.349 ± 0.51 for the second.

FNCTRKNLCFFGIVYSSIIT and LHNDLLKVNSERENNNDLGS are within error of each other in amyloid nucleation score: -0.86 ± 0.63 for the first, 0.089 ± 0.5 for the second.

Compared with RLNIGLLSVGYR, NQLRVLMTIFWPGMLNTPAV is lower in amyloid nucleation score: 1.76 ± 0.17 for the first, 0.622 ± 0.31 for the second.

Compared with EGTIWRVSW, IVKYLVCEQTKILCMMCTCD is higher in amyloid nucleation score: 0.392 ± 0.56 for the first, 8.891 ± 0.068 for the second.

HYSFYLVDYSFNISVGYFCT and KAYLH are within error of each other in amyloid nucleation score: 0.571 ± 0.39 for the first, -0.427 ± 0.78 for the second.

PGRRDSHVRAYQEGVVESVS and GLGMGDFCILVKLKANVSRC are within error of each other in amyloid nucleation score: 0.051 ± 0.49 for the first, -0.266 ± 1 for the second.

CFMFWLCITNGIRPQCPLAS and EYFTYVSAVWKSWCTYGGPA are within error of each other in amyloid nucleation score: 0.016 ± 0.65 for the first, 0.529 ± 0.38 for the second.

YGFKGTSLR and FFSNRNCLE are within error of each other in amyloid nucleation score: -0.506 ± 0.28 for the first, -1.34 ± 0.64 for the second.

First: AILKWSLICMMGRDWYSQWF
Second: KLGRCRRKFMLYGCNLVQSR
The amyloid nucleation score of the first is higher: 6.317 ± 0.037 for the first, -0.133 ± 0.33 for the second.

Going from VRRHADRGGVLAEISNEVVQ to TSFGCWSQAYKMMRFDLCSV, the amyloid nucleation score falls from 0.608 ± 0.24 to -0.145 ± 0.21.

NALADRRFTISPRIFAYLLL and MFLRRCSSRVDSKNGHSSKD are within error of each other in amyloid nucleation score: 0.312 ± 0.65 for the first, 0.107 ± 0.39 for the second.

VPSHRPFVYHRKDLGFLGSV and DPAELQ are within error of each other in amyloid nucleation score: 0.269 ± 0.6 for the first, -0.256 ± 0.79 for the second.

APSHPSTVFLYICLLFENKP and CWPCRMMKLVREESAVYTGG are within error of each other in amyloid nucleation score: -0.128 ± 0.55 for the first, 0.062 ± 0.34 for the second.

First: SELRKVRCNG
Second: VIYRSNLASRGMNHAVFSKR
The amyloid nucleation score of the first is higher: 0.813 ± 0.46 for the first, -0.92 ± 0.28 for the second.

VYVFDIVRLG and VVVFMHV are within error of each other in amyloid nucleation score: 0.465 ± 0.8 for the first, 1.51 ± 0.32 for the second.

First: FHINAFISTWFSDNFCFCDY
Second: FSFSCEGANFDVYTGMWQGS
The amyloid nucleation score of the first is higher: 1.31 ± 0.22 for the first, -0.073 ± 0.45 for the second.

Going from DLGGQMNYLVLMGNDMWNV to LHMCHWDSYSE, the amyloid nucleation score rises from -1.01 ± 0.78 to 1.36 ± 0.35.

ERDSGPEYIVCIQVVIYLGM and VPKVKNLDWSSELAKFKLEV are within error of each other in amyloid nucleation score: 3.06 ± 0.052 for the first, 2.95 ± 0.1 for the second.

First: SYFHNHWFCLRQFRVDASWC
Second: RYGRDGDRIIYNVCDFFFSG
The amyloid nucleation score of the first is lower: -0.047 ± 0.46 for the first, 6.475 ± 0.047 for the second.

Compared with LVMFKVTF, GKLLRHFGLMYCLFLIAAYG is lower in amyloid nucleation score: 6.432 ± 0.04 for the first, 0.108 ± 0.42 for the second.

GRVNLDRCSSWVGWFVGCLL and AFCKGYIARMRSINAGVGAG are within error of each other in amyloid nucleation score: -1.09 ± 0.78 for the first, -0.144 ± 0.36 for the second.

HSFNPNTCYLKGIDDALLGF and RASASNR are within error of each other in amyloid nucleation score: -0.838 ± 0.62 for the first, -0.559 ± 0.36 for the second.

Compared with DGVSVPSCRLKRKAVIAGWL, IICMEVIFSLANCADWRTAV is higher in amyloid nucleation score: 0.662 ± 0.4 for the first, 3.53 ± 0.12 for the second.

Going from VSCVCHYVNNFNPMLCNRKC to VTSGGLEWSRD, the amyloid nucleation score rises from -0.064 ± 0.8 to 3.11 ± 0.05.

Compared with CFNVV, NIFSWEAVEKARYAHSPLNN is lower in amyloid nucleation score: 0.43 ± 0.49 for the first, -1.44 ± 1.1 for the second.

First: NVFMRYTKFYMCLELGNCWG
Second: AYMSITSSLYNCTRRPTGTC
The amyloid nucleation score of the first is higher: -0.331 ± 0.5 for the first, -1.35 ± 0.38 for the second.

First: TVAKSLVYLSVCQVAA
Second: FFSRFERPLQCNIFKL
The amyloid nucleation score of the first is lower: 0.035 ± 1 for the first, 4.13 ± 0.12 for the second.

GVIVCTWPRPRDCS and TGCRVGHCIYVYVSEVSSNP are within error of each other in amyloid nucleation score: 0.72 ± 0.58 for the first, 0.903 ± 0.34 for the second.

NGRRFLSYSVMLRDLRYRSC gave an amyloid nucleation score of 0.138 ± 0.76.

For AAFVAYLAYFLMFSSCFCIY, the amyloid nucleation score was “inactive”.
With RKPMLFLRYF the amyloid nucleation score was “inactive”.
In the case of WMLNLDLLIFASLRGVVEGD, the amyloid nucleation score is reported as “inactive”.
With RSTTM the amyloid nucleation score was “inactive”.
In the case of CNRMGFHMFDCF, the amyloid nucleation score is reported as “inactive”.
For KECRYID, the amyloid nucleation score was “inactive”.
For IREPSCWFLFFIKINAGDAV, the amyloid nucleation score was “inactive”.
For YRAGLGALEGSVLHAGKW, the amyloid nucleation score was “inactive”.
For HRRSFGSQMYL, the amyloid nucleation score was “inactive”.
In the case of LKLYPGIFIICVRTMDFVFW, the amyloid nucleation score is reported as “inactive”.
For LNNSIYHLGKY, the amyloid nucleation score was “inactive”.
